These results are taken from US20250327081, “TDP-43-BINDING SINGLE-STRANDED APTAMERS AND USES THEREOF” (FONDAZIONE ISTITUTO ITALIANO DI TECNOLOGIA, published 2025).

The target in data set [1] is T1, TDP-43 construct (RRM1-2) (UniProt Q13148 Q13148:104-262). The data set is described as follows: BLI; 10 mM K phosphate pH 7.2, 150 mM KCl, 0.01% Tween20, 25 C. The conditions noted are these: label: 3'-biotin. For orientation: BLI is a label-free optical method that tracks binding on a fibre tip over time.
The target in data set [2] is T1, TDP-43 construct (RRM1-2). Put plainly: BLI; 10 mM K phosphate pH 7.2, 150 mM KCl, 0.01% Tween20, 25 C; about 90 nM in Example 7. The conditions noted are these: label: 3'-biotin (BLI). As for the experimental part:
In this study, the inventors calculated the predicted interaction propensities between the RNA aptamers of Table 1 and TDP-43 and validated the predicted interaction propensities by comparing them with the experimentally measured Kd (dissociation constant) values. To this end, the Kd between each of Apt-1, Apt-2, Apt-3, Apt-11, Apt-12 or Apt-13 and the two RNA recognition motifs of TDP-43 (RRM1-2) was determined by means of biolayer interferometry, a label-free technology to study biomolecular interactions. Importantly, RRM1-2 represents the minimal region necessary for RNA-binding with high affinity (Lukavsky et al., 2013) purifiable as a monomer under near-to-physiological conditions and in suitable quantities (Zacco et al., 2018).
(§1) The binding assays were performed in 10 mM potassium phosphate buffer (pH 7.2) with 150 mM KCl and 0.01% Tween20. Streptavidin-coated biosensors were loaded with 1 μg/ml RNA aptamer modified with biotin on the 3′end and exposed to increasing protein concentrations varying from 20 nM to 20 μM, according to the strength of the binding. Kd values were estimated by fitting the response intensity (shift in the wavelength upon binding) as a function of the protein concentration, at the steady state. The assay was repeated at least 3 times, each time in triplicate. The reported binding curves are examples of the output of one experiment.

For data set [3], the target named is T1, TDP-43 construct (RRM1-2). The data set is described as follows: BLI.
The target in data set [4] is T1, TDP-43 construct (RRM1-2). The data set is described as follows: BLI; 10 mM K phosphate pH 7.2, 150 mM KCl, 0.01% Tween20, 25 C. As to the method:
as §1
The inventors verified whether Apt-14 preserves the ability to bind tightly to TDP-43. Bio-layer interferometry was used to determine the dissociation constant of the interaction between Apt-14 and the TDP-43 construct. This experiment was carried out with the same buffer and the same conditions employed for the experiment carried out with Apt-1.

T1 sequence (Q13148 104-262, one chain of several): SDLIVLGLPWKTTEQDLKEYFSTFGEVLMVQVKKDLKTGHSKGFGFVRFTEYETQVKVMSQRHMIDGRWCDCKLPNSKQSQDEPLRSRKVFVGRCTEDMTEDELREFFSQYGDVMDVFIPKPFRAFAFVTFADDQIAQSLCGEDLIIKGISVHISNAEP

For GUGGUCCCCG (ssRNA) [Apt-2], binding in data set [1] was characterised by a dissociation constant (Kd) of 750 nM.
CGGUGUUGCU (ssRNA) [Apt-1]: the dissociation constant (Kd) in data set [2] is 100 nM.
For the molecule CGAGGCCGGG (ssRNA) [Apt-5], the equilibrium dissociation constant (Kd) in data set [1] was determined as 1500 nM.
The same measure, in the same setting: the figure for GCGGGGCCCG (ssRNA) [Apt-6] is 1600 nM.
On the same count and under the same terms, next, CGCUGUGGUC (ssRNA) [Apt-3]: 650 nM.
GCUGGGGUGGGGCGGAUCGGUGUUG (ssRNA) [Apt-1 (25 nt)] had a dissociation constant (Kd) in data set [3] of approximately 750 nM.
For CGGTGTTGCT (ssDNA) [Apt-14 (DNA version of Apt-1)], the Kd in data set [4] is approximately 76 nM.
Regarding GGGGUGGGGC (ssRNA) [Apt-4], binding in data set [1] was put at a Kd of 1300 nM.

Usually Kd stands for the equilibrium constant for the complex coming apart. A low value points to higher affinity.
